Measurements: article doi:10.1101/2020.09.10.291369, “In vivo and in vitro mechanistic characterization of a clinically relevant PolγA mutation”

Biological target: T1, POLγA WT (UniProt P54099 26-1218)
T1 sequence: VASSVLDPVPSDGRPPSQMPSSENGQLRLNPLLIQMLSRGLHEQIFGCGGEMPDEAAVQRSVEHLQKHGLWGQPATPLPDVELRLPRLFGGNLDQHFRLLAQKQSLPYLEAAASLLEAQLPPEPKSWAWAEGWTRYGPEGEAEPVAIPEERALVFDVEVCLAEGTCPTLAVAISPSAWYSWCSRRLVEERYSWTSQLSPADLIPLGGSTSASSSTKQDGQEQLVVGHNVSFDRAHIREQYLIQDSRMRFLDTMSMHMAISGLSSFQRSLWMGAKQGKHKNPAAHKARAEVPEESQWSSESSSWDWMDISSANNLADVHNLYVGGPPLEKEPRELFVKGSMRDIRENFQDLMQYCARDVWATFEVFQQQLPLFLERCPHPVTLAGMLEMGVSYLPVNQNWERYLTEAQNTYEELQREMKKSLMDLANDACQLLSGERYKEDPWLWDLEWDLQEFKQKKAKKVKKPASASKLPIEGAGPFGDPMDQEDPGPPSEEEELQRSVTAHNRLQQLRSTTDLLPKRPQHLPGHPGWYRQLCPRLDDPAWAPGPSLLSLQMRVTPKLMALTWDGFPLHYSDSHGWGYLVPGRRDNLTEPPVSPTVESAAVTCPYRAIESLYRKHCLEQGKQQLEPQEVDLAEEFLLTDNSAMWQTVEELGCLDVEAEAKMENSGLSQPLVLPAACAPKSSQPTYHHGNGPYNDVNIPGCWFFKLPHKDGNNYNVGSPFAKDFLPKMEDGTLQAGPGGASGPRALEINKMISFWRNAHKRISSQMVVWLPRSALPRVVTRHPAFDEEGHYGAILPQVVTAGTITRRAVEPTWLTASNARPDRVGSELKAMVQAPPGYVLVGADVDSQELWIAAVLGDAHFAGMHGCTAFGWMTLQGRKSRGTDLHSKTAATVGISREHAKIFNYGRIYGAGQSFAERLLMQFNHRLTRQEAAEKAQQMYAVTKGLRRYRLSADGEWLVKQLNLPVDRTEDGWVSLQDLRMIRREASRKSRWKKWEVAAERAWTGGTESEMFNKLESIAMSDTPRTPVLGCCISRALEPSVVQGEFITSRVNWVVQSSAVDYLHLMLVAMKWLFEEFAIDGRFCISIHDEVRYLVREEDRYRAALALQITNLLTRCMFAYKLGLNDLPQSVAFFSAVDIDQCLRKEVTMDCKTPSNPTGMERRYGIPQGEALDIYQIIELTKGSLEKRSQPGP
Test: EMSA; POLγA alone; 10 mM MgCl2, ddGTP, dCTP, ATP; Kd in Suppl. Fig. 5A, value not in material; EMSA: 10 fmol DNA in 15 µl, 20 mM Tris-HCl pH 7.8, 1 mM DTT, 0.1 mg/ml BSA, 10 mM MgCl2, 10% glycerol, 2 mM ATP, 0.3 mM ddGTP, 3 mM dCTP, RT 10 min; 6% native PAGE 0.5x TBE
Settings: protein: recombinant; label: 5'-32P on strand 2 (21-mer); 5' overhang 15 nt on strand 1; 21 bp duplex; primer-template

B1: 36-nt/21-nt primed template (mixed)
DNA 1: TTTTTTTTTTATCCGGGCTCCTCTAGACTCGACCGC
DNA 2: GCGGTCGAGTCTAGAGGAGCC
B1: binds.
